# Measured values taken from article PMC5014551.
# B1: Bol3-Strep [S. cerevisiae] / Lys4 [S. cerevisiae (endogenous in yeast mitochondria)] (parent)
# chain 1: MKLPQTMLRSISVKHVRWPRILTGSKLWYSTQMAMTPEEKMITDKLQQELEPEVCKVQDVSGGCGSMFAINITSKKFNGLSLIKQHQLVNRILRDDISRWHGLQLTTKKSTGKGPASS
# chain 2: LKGQNLTEKIVQSYAVNLPEGKVVHSGDYVSIKPAHCMSHDNSWPVALKFMGLGATKIKNPSQIVTTLDHDIQNKSEKNLTKYKNIENFAKKHHIDHYPAGRGIGHQIMIEEGYAFPLNMTVASDSHSNTYGGLGSLGTPIVRTDAAAIWATGQTWWQIPPVAQVELKGQLPQGVSGKDIIVALCGLFNNDQVLNHAIEFTGDSLNALPIDHRLTIANMTTEWGALSGLFPVDKTLIDWYKNRLQKLGTNNHPRINPKTIRALEEKAKIPKADKDAHYAKKLIIDLATLTHYVSGPNSVKVSNTVQDLSQQDIKINKAYLVSCTNSRLSDLQSAADVVCPTGDLNKVNKVAPGVEFYVAAASSEIEADARKSGAWEKLLKAGCIPLPSGCGPCIGLGAGLLEPGEVGISATNRNFKGRMGSKDALAYLASPAVVAASAVLGKISSPAEVLSTSEIPFSGVKTEIIENPVVEEEVNAQTEAPKQSVEILEGFPREFSGELVLCDADNINTDGIYPGKYTYQDDVPKEKMAQVCMENYDAEFRTKVHPGDIVVSGFNFGTGSSREQAATALLAKGINLVVSGSFGNIFSRNSINNALLTLEIPALIKKLREKYQGAPKELTRRTGWFLKWDVADAKVVVTEGSLDGPVILEQKVGELGKNLQEIIVKGGLEGWVKSQL
# B2: Bol3-Strep [S. cerevisiae] / Bio2 [S. cerevisiae (endogenous in yeast mitochondria)] (parent)
# chain 1: B1 chain 1
# chain 2: TKYATNAAVKSTTASSEASTLGALQYALSLDEPSHSWTKSQLKEIYHTPLLELTHAAQLQHRKWHDPTKVQLCTLMNIKSGGCSEDCKYCAQSSRNDTGLKAEKMVKVDEVIKEAEEAKRNGSTRFCLGAAWRDMKGRKSAMKRIQEMVTKVNDMGLETCVTLGMVDQDQAKQLKDAGLTAYNHNIDTSREHYSKVITTRTYDDRLQTIKNVQESGIKACTGGILGLGESEDDHIGFIYTLSNMSPHPESLPINRLVAIKGTPMAEELADPKSKKLQFDEILRTIATARIVMPKAIIRLAAGRYTMKETEQFVCFMAGCNSIFTGKKMLTTMCNGWDEDKAMLAKWGLQPMEAFKYDRS
# B3: Bol3-Strep [S. cerevisiae] / Aco1 [S. cerevisiae (endogenous in yeast mitochondria)] (parent)
# chain 1: B1 chain 1
# chain 2: ATVSNLTRDSKVNQNLLEDHSFINYKQNVETLDIVRKRLNRPFTYAEKILYGHLDDPHGQDIQRGVSYLKLRPDRVACQDATAQMAILQFMSAGLPQVAKPVTVHCDHLIQAQVGGEKDLKRAIDLNKEVYDFLASATAKYNMGFWKPGSGIIHQIVLENYAFPGALIIGTDSHTPNAGGLGQLAIGVGGADAVDVMAGRPWELKAPKILGVKLTGKMNGWTSPKDIILKLAGITTVKGGTGKIVEYFGDGVDTFSATGMGTICNMGAEIGATTSVFPFNKSMIEYLEATGRGKIADFAKLYHKDLLSADKDAEYDEVVEIDLNTLEPYINGPFTPDLATPVSKMKEVAVANNWPLDVRVGLIGSCTNSSYEDMSRSASIVKDAAAHGLKSKTIFTVTPGSEQIRATIERDGQLETFKEFGGIVLANACGPCIGQWDRRDIKKGDKNTIVSSYNRNFTSRNDGNPQTHAFVASPELVTAFAIAGDLRFNPLTDKLKDKDGNEFMLKPPHGDGLPQRGYDAGENTYQAPPADRSTVEVKVSPTSDRLQLLKPFKPWDGKDAKDMPILIKAVGKTTTDHISMAGPWLKYRGHLENISNNYMIGAINAENKKANCVKNVYTGEYKGVPDTARDYRDQGIKWVVIGDENFGEGSSREHAALEPRFLGGFAIITKSFARIHETNLKKQGLLPLNFKNPADYDKINPDDRIDILGLAELAPGKPVTMRVHPKNGKPWDAVLTHTFNDEQIEWFKYGSALNKIKADEKK
# B4: Bol1-Strep [S. cerevisiae] / Grx5 [S. cerevisiae (endogenous in yeast mitochondria)] (parent)
# chain 1: MFKRAMSTDGPVARTILKRLECGFPDYKNFAFGLYNDSHKHKGHAGVQGNVSAETHFRIEMVSKKFEGLKLPQRHRMVYSLLQDEMAQANGIHALQLSLKTPQEYESKAK
# chain 2: LSTEIRKAIEDAIESAPVVLFMKGTPEFPKCGFSRATIGLLGNQGVDPAKFAAYNVLEDPELREGIKEFSEWPTIPQLYVNKEFIGGCDVITSMARSGELADLLEEAQALVPEEEEETKDR
# B5: Bol3-Strep [S. cerevisiae] / Aco2 [S. cerevisiae (endogenous in yeast mitochondria)] (parent)
# chain 1: B1 chain 1
# chain 2: ATHANMFPSVSKNFQTKVPPYAKLLTNLDKIKQITNNAPLTLAEKILYSHLCDPEESITSSDLSTIRGNKYLKLNPDRVAMQDASAQMALLQFMTTGLNQTSVPASIHCDHLIVGKDGETKDLPSSIATNQEVFDFLESCAKRYGIQFWGPGSGIIHQIVLENFSAPGLMMLGTDSHTPNAGGLGAIAIGVGGADAVDALTGTPWELKAPKILGVKLTGKLNGWSTPKDVITKLAGLLTVRGGTGYIVEYFGEGVSTLSCTGMATICNMGAEIGATTSTFPYQEAHKRYLQATNRAEVAEAADVALNKFNFLRADKDAQYDKVIEIDLSAIEPHVNGPFTPDLSTPISQYAEKSLKENWPQKVSAGLIGSCTNSSYQDMSRVVDLVKQASKAGLKPRIPFFVTPGSEQIRATLERDGIIDIFQENGAKVLANACGPCIGQWNREDVSKTSKETNTIFTSFNRNFRARNDGNRNTMNFLTSPEIVTAMSYSGDAQFNPLTDSIKLPNGKDFKFQPPKGDELPKRGFEHGRDKFYPEMDPKPDSNVEIKVDPNSDRLQLLEPFKPWNGKELKTNVLLKVEGKCTTDHISAAGVWLKYKGHLENISYNTLIGAQNKETGEVNKAYDLDGTEYDIPGLMMKWKSDGRPWTVIAEHNYGEGSAREHAALSPRFLGGEILLVKSFARIHETNLKKQGVLPLTFANESDYDKISSGDVLETLNLVDMIAKDGNNGGEIDVKITKPNGESFTIKAKHTMSKDQIDFFKAGSAINYIGNIRRNE
# B6: Bol3-Strep [S. cerevisiae] / Grx5 [S. cerevisiae (endogenous in yeast mitochondria)] (parent)
# chain 1: B1 chain 1
# chain 2: B4 chain 2
# B7: Bol3-Strep [S. cerevisiae] / Lip5 [S. cerevisiae (endogenous in yeast mitochondria)] (parent)
# chain 1: B1 chain 1
# chain 2: SSTIRCGTSATRPIRSNALNTDSDNASVRVPVGNSTEVENATSQLTGTSGKRRKGNRKRITEFKDALNLGPSFADFVSGKASKMILDPLEKARQNTEEAKKLPRWLKVPIPKGTNYHKLKGDVKELGLSTVCEEARCPNIGECWGGKDKSKATATIMLLGDTCTRGCRFCSVKTNRTPSKPDPMEPENTAEAIKRWGLGYVVLTTVDRDDLVDGGANHLAETVRKIKQKAPNTLVETLSGDFRGDLKMVDIMAQCGLDVYAHNLETVESLTPHVRDRRATYRQSLSVLERAKATVPSLITKTSIMLGLGETDEQITQTLKDLRNIQCDVVTFGQYMRPTKRHMKVVEYVKPEKFDYWKERALEMGFLYCASGPLVRSSYKAGEAFIENVLKKRNMK
# B8: Bol3-Strep [S. cerevisiae] / Sdh2 [S. cerevisiae (endogenous in yeast mitochondria)] (parent)
# chain 1: B1 chain 1
# chain 2: TATTAAATHTPRLKTFKVYRWNPDEPSAKPHLQSYQVDLNDCGPMVLDALLKIKDEQDSTLTFRRSCREGICGSCAMNIGGRNTLACICKIDQNESKQLKIYPLPHMFIVKDLVPDLTNFYQQYKSIQPYLQRSSFPKDGTEVLQSIEDRKKLDGLYECILCACCSTSCPSYWWNQEQYLGPAVLMQAYRWLIDSRDQATKTRKAMLNNSMSLYRCHTIMNCTRTCPKGLNPGLAIAEIKKSLAFA
# Variants of: B1
# Experiment: Strep-tag affinity purification with MS proteomics (spectral counts)
# Conditions: parent: 10, read off a plot
row,screen value [%],Variant
1,30,chain 1 MKLPQTMLRSISVKHVRWPRILTGSKLWYSTQMAMTPEEKMITDKLQQELEPEVCKVQDVSGGCGSMFAINITSKKFNGLSLIKQHQLVNRILRDDISRWCGLQLTTKKSTGKGPASS [chain 1 H101C]

# Variants of: B2
# Experiment: as above
# Conditions: parent: 8, read off a plot
row,screen value [%],Variant
1,31,chain 1 MKLPQTMLRSISVKHVRWPRILTGSKLWYSTQMAMTPEEKMITDKLQQELEPEVCKVQDVSGGCGSMFAINITSKKFNGLSLIKQHQLVNRILRDDISRWCGLQLTTKKSTGKGPASS [chain 1 H101C]

# Variants of: B3
# Experiment: as above
# Conditions: parent: 10, read off a plot
row,screen value [%],Variant
1,22,chain 1 MKLPQTMLRSISVKHVRWPRILTGSKLWYSTQMAMTPEEKMITDKLQQELEPEVCKVQDVSGGCGSMFAINITSKKFNGLSLIKQHQLVNRILRDDISRWCGLQLTTKKSTGKGPASS [chain 1 H101C]

# Variants of: B4
# Experiment: as above
# Conditions: parent: 47, read off a plot
row,screen value [%],Variant
1,5.9,chain 1 MFKRAMSTDGPVARTILKRLECGFPDYKNFAFGLYNDSHKHKGHAGVQGNVSAETHFRIEMVSKKFEGLKLPQRHRMVYSLLQDEMAQANGICALQLSLKTPQEYESKAK [chain 1 H93C]

# Variants of: B5
# Experiment: as above
# Conditions: parent: 0, read off a plot
row,screen value [%],Variant
1,11,chain 1 MKLPQTMLRSISVKHVRWPRILTGSKLWYSTQMAMTPEEKMITDKLQQELEPEVCKVQDVSGGCGSMFAINITSKKFNGLSLIKQHQLVNRILRDDISRWCGLQLTTKKSTGKGPASS [chain 1 H101C]

# Variants of: B6
# Experiment: as above
# Conditions: parent: 21, read off a plot
row,screen value [%],Variant
1,18,chain 1 MKLPQTMLRSISVKHVRWPRILTGSKLWYSTQMAMTPEEKMITDKLQQELEPEVCKVQDVSGGCGSMFAINITSKKFNGLSLIKQHQLVNRILRDDISRWCGLQLTTKKSTGKGPASS [chain 1 H101C]

# Variants of: B7
# Experiment: as above
# Conditions: parent: 10, read off a plot
row,screen value [%],Variant
1,10,chain 1 MKLPQTMLRSISVKHVRWPRILTGSKLWYSTQMAMTPEEKMITDKLQQELEPEVCKVQDVSGGCGSMFAINITSKKFNGLSLIKQHQLVNRILRDDISRWCGLQLTTKKSTGKGPASS [chain 1 H101C]

# Variants of: B8
# Experiment: as above
# Conditions: parent: 32, read off a plot
row,screen value [%],Variant
1,24,chain 1 MKLPQTMLRSISVKHVRWPRILTGSKLWYSTQMAMTPEEKMITDKLQQELEPEVCKVQDVSGGCGSMFAINITSKKFNGLSLIKQHQLVNRILRDDISRWCGLQLTTKKSTGKGPASS [chain 1 H101C]
